US20210355194A1 (TWIST BIOSCIENCE, published 2021)
Residue numbers refer to the chain shown, from its start.

B1: SARS-CoV-2 variant 1-49 (antibody, V domains shown)
VH: EVQLLESGGGLVQPGGSLRLSCAASGFTFSSYAMYWVRQAPGKGLEWVSAISGSAGSTYYADSVKGRFTISRDNSKNTLYLQMNSLRAEDTAVYYCARDTNDFWGQGTLVTVSS
VL: QSALTQPASVSGSPGQSITISCTGTSSDIGSYNLVSWYQQHPGKAPKLMIYEGTKRPSGVSNRFSGSKSGNTASLTISGLQAEDEADYYCCSYAGSRTYVFGGGTKLTVL
B2: SARS-CoV-2 variant 1-32 (antibody, V domains shown)
VH: EVQLLESGGGLVQPGGSLRLSCAASGFTFSSYAMYWVRQAPGKGLEWVSAISGSGGSTFYADSVKGRFTISRDNSKNTLYLQMNSLRAEDTAVYYCTRPPYGDYGDYWGQGTLVTVSS
VL: QSALTQPASVSGSPGQSITISCTGTSSDVGGYNLVSWYQQHPGKAPKLMIYEGNKRPSGVSNRFSGSKSGNTASLTISGLQAEDEADYYCCSYAGSSTFPVVFGGGTKLTVL
B3: SARS-CoV-2 variant 1-4 (antibody, V domains shown)
VH: EVQLLESGGGLVQPGGSLRLSCAASGFTFSSQAMSWVRQAPGKGLEWVSAISGSGGGTYYADSVKGRFTISRDNSKNTLYLQMNSLRAEDTAVYYCAKDRRFGEFDPWGQGTLVTVSS
VL: QSALTQPASVSGSPGQSITISCTGTSSDVGTYNLVSWYQQHPGKAPKLMIYEGSQRPSGVSNRFSGSKSGNTASLTISGLQAEDEADYYCCSYAGSSSFVVFGGGTKLTVL
B4: SARS-CoV-2 variant 1-28 (antibody, V domains shown)
VH: EVQLLESGGGLVQPGGSLRLSCAASGFTFSSYGMSWVRQAPGKGLEWVSAISGSGGGTYYADSVKGRFTISRDNSKNTLYLQMNSLRAEDTAVYYCASSSSWQFDYWGQGTLVTVSS
VL: B3 VL with D28G, T31S, S98T, F99H, V100Y
B5: SARS-CoV-2 variant 1-30 (antibody, V domains shown)
VH: B2 VH with Y35T
VL: B3 VL with S27R, T31S, S54T, Q55K, S97R, S98T, F99P
B6: SARS-CoV-2 variant 1-31 (antibody, V domains shown)
VH: B2 VH with Y35N
VL: B3 VL with T31K, S97R, S98T, F99P
B7: SARS-CoV-2 variant 1-5 (antibody, V domains shown)
VH: B3 VH
VL: B3 VL with D28G, T31S, G53A, Q55K, S97Y, S98T, V100A
B8: SARS-CoV-2 variant 1-3 (antibody, V domains shown)
VH: B3 VH
VL: B3 VL with T25I, T31S, S54T, Q55K
B9: variant 5-1 (Fc fusion)
VHH: EVQLVESGGGLVQPGGSLRLSCAASGGTFSSIGMGWFRQAPGKEREFVAAISWDGGATAYADSVKGRFTISADNSKNTAYLQMNSLKPEDTAVYYCAKEDVGKPFDWGQGTLVTVSS
B10: variant 6-78 (Fc fusion)
VHH: EVQLVESGGGLVQPGGSLRLSCAASGRTYDAMGWFRQAPGKEREFVASVTSGGYTHYADSVKGRFTISADNSKNTAYLQMNSLKPEDTAVYYCAKFGRKIVGATELDYWGQGTLVTVSS
B11: variant 6-20 (Fc fusion)
VHH: EVQLVESGGGLVQPGGSLRLSCAASGSTLPYHAMGWFRQAPGKEREFVAAITWNGASTSYADSVKGRFTISADNSKNTAYLQMNSLKPEDTAVYYCARDRYYDTSASYFESETWGQGTLVTVSS
B12: variant 6-63 (Fc fusion)
VHH: EVQLVESGGGLVQPGGSLRLSCAASGQTFNMGWFRQAPGKEREFVAAIGSGGSTSYADSVKGRFTISADNSKNTAYLQMNSLKPEDTAVYYCWRLGNDYFDYWGQGTLVTVSS
notes: also called VHH nanobody 6-63
B13: variant 6-60 (Fc fusion)
VHH: EVQLVESGGGLVQPGGSLRLSCAASGDTYGSYWMGWFRQAPGKEREFVATISQSGAATAYADSVKGRFTISADNSKNTAYLQMNSLKPEDTAVYYCAGLLRYSGTYYDAFDVWGQGTLVTVSS
B14: variant 6-76 (Fc fusion)
VHH: EVQLVESGGGLVQPGGSLRLSCAASGLAFDFDGMGWFRQAPGKEREGVAAINSGGSTYYADSVKGRFTISADNSKNTAYLQMNSLKPEDTAVYYCARFFRAHDYWGQGTLVTVSS
B15: variant 6-55 (Fc fusion)
VHH: EVQLVESGGGLVQPGGSLRLSCAASGFTMSSSWMGWFRQAPGKEREFVARITSGGSTGYADSVKGRFTISADNSKNTAYLQMNSLKPEDTAVYYCASVDGYFDYWGQGTLVTVSS
B16: variant 6-3 (Fc fusion)
VHH: EVQLVESGGGLVQPGGSLRLSCAASGFTFSPSWMGWFRQAPGKEREFVATINEYGGRNYADSVKGRFTISADNSKNTAYLQMNSLKPEDTAVYYCARVDRDFDYWGQGTLVTVSS
B17: variant 6-26 (Fc fusion)
VHH: B16 VHH with F27D, P31T, E53T, Y54G, R57T, D99T, R100T, D101S
B18: variant 6-73 (Fc fusion)
VHH: EVQLVESGGGLVQPGGSLRLSCAASGHTFSGYAMGWFRQAPGKEREFVAVITREGSTYYADSVKGRFTISADNSKNTAYLQMNSLKPEDTAVYYCARLGGEGFDYWGQGTLVTVSS
B19: variant 6-85 (Fc fusion)
VHH: EVQLVESGGGLVQPGGSLRLSCAASGGTFSVFAMGWFRQAPGKEREFVSAINWSGGSLLYADSVKGRFTISADNSKNTAYLQMNSLKPEDTAVYYCALFGDFDYWGQGTLVTVSS
B20: variant 5-37 (Fc fusion)
VHH: EVQLVESGGGLVQPGGSLRLSCAASGSTFSINAMGWFRQAPGKEREFVGGISRSGATTNYADSVKGRFTISADNSKNTAYLQMNSLKPEDTAVYYCAADGVPEYSDYASGPVWGQGTLVTVSS

molecular target: T1, S1 Fc fusion protein (SARS-CoV-2, UniProt P0DTC2 14-685); experiment: phage ELISA

Point of comparison: B5, “ELISA fold over background” value 5.6 fold. Against it:
- B1 — lower, 0.8 fold
- B2 — lower, 4 fold
- B3 — lower, 0.9 fold
- B4 — lower, 1.1 fold
- B6 — higher, 15.7 fold
- B7 — lower, 1.2 fold
- B8 — lower, 1.5 fold

molecular target: T2, COVID S1 RBM Fc fusion (Antigen 2) (SARS-CoV-2, UniProt P0DTC2 437-508); experiment: phage ELISA

Point of comparison: B8, “ELISA fold over background” value 1.5 fold. Against it:
- B1 — lower, 0.8 fold
- B2 — lower, 1.1 fold
- B3 — lower, 1.1 fold
- B4 — lower, 1.2 fold
- B5 — lower, 1.4 fold
- B6 — lower, 1.2 fold
- B7 — lower, 1.4 fold

molecular target: T1, S1 Fc fusion protein; experiment: phage ELISA; remark: another data set of the same source

Point of comparison: B4, “ELISA fold over background” value 1.1 fold. Against it:
- B1 — lower, 0.8 fold
- B2 — higher, 4 fold
- B3 — lower, 0.9 fold
- B5 — higher, 5.6 fold
- B6 — higher, 15.7 fold
- B7 — higher, 1.2 fold
- B8 — higher, 1.5 fold

molecular target: T2, COVID S1 RBM Fc fusion (Antigen 2); experiment: phage ELISA; remark: another data set of the same source

Point of comparison: B8, “ELISA fold over background” value 1.5 fold. Against it:
- B1 — lower, 0.8 fold
- B2 — lower, 1.1 fold
- B3 — lower, 1.1 fold
- B4 — lower, 1.2 fold
- B5 — lower, 1.4 fold
- B6 — lower, 1.2 fold
- B7 — lower, 1.4 fold

molecular target: T3, SARS-CoV-2 spike on live SARS-CoV-2 virus (SARS-CoV-2, UniProt P0DTC2 14-1273); experiment: cell-based or functional assay

Point of comparison: B13, “EC50” value 0.15 µg/mL. Against it:
- B9 — within 1.5-fold, 0.1 µg/mL
- B10 — 55-fold higher, 8.26 µg/mL
- B11 — 34-fold higher, 5.03 µg/mL
- B12 — 2.5-fold lower, 0.06 µg/mL
- B14 — 7.2-fold higher, 1.08 µg/mL
- B15 — within 1.5-fold, 0.21 µg/mL
- B16 — 2.5-fold lower, 0.06 µg/mL
- B17 — 20-fold higher, 2.97 µg/mL
- B18 — 9.7-fold higher, 1.46 µg/mL
- B19 — 5.6-fold higher, 0.84 µg/mL

molecular target: SARS-CoV-2 spike on VSV-pseudotype SARS-CoV-2 (SARS-CoV-2, UniProt P0DTC2 14-1273); experiment: cell-based or functional assay

Point of comparison: B19, “NC50” value 0.84 µg/mL. Against it:
- B9 — 8.4-fold lower, 0.1 µg/mL
- B10 — 9.8-fold higher, 8.26 µg/mL
- B11 — 6-fold higher, 5.03 µg/mL
- B12 — 14-fold lower, 0.06 µg/mL
- B13 — 5.6-fold lower, 0.15 µg/mL
- B14 — within 1.5-fold, 1.08 µg/mL
- B15 — 4-fold lower, 0.21 µg/mL
- B16 — 14-fold lower, 0.06 µg/mL
- B17 — 3.5-fold higher, 2.97 µg/mL
- B18 — 1.7-fold higher, 1.46 µg/mL

molecular target: T3, SARS-CoV-2 spike on live SARS-CoV-2 …; experiment: cell-based or functional assay; remark: another data set of the same source

Point of comparison: B14, “PRNT90” value 3.9 ng/mL. Against it:
- B9 — 4-fold higher, 15.6 ng/mL
- B10 — 64-fold higher, 250 ng/mL
- B11 — 4-fold higher, 15.6 ng/mL
- B12 — the same, 3.9 ng/mL
- B13 — lower, < 0.98 ng/mL
- B15 — 16-fold higher, 62.5 ng/mL
- B16 — lower, < 0.98 ng/mL
- B17 — 16-fold higher, 62.5 ng/mL
- B18 — 64-fold higher, 250 ng/mL
- B19 — 16-fold higher, 62.5 ng/mL

molecular target: T3, SARS-CoV-2 spike on live SARS-CoV-2 …; experiment: cell-based or functional assay; remark: another data set of the same source

Point of comparison: B20, “EC80” value 12.4 µg/mL. Against it:
- B9 — 15-fold lower, 0.811 µg/mL
- B10 — within 1.5-fold, 13.8 µg/mL
- B11 — 5.4-fold lower, 2.31 µg/mL
- B12 — 210-fold lower, 0.0579 µg/mL
- B13 — 52-fold lower, 0.237 µg/mL
- B14 — 29-fold lower, 0.426 µg/mL
- B15 — 28-fold lower, 0.445 µg/mL
- B16 — 110-fold lower, 0.115 µg/mL
- B17 — 3.4-fold lower, 3.61 µg/mL
- B18 — 6.1-fold lower, 2.02 µg/mL
- B19 — 12-fold lower, 1.06 µg/mL
